Data published in patent publication US20150005474A1 (GLYCOTOPE, published 2015).

Biological target: MUC1 (polymorphic epithelial mucin) on human tumor cells (human, UniProt P15941 24-1255)
Test: cell binding test with radiolabelled antibody on K562 cells, Scatchard analysis

Chain of MUC1 (polymorphic epithelial mucin) on human tumor cells (P15941 24-1097, chain 1 of 2): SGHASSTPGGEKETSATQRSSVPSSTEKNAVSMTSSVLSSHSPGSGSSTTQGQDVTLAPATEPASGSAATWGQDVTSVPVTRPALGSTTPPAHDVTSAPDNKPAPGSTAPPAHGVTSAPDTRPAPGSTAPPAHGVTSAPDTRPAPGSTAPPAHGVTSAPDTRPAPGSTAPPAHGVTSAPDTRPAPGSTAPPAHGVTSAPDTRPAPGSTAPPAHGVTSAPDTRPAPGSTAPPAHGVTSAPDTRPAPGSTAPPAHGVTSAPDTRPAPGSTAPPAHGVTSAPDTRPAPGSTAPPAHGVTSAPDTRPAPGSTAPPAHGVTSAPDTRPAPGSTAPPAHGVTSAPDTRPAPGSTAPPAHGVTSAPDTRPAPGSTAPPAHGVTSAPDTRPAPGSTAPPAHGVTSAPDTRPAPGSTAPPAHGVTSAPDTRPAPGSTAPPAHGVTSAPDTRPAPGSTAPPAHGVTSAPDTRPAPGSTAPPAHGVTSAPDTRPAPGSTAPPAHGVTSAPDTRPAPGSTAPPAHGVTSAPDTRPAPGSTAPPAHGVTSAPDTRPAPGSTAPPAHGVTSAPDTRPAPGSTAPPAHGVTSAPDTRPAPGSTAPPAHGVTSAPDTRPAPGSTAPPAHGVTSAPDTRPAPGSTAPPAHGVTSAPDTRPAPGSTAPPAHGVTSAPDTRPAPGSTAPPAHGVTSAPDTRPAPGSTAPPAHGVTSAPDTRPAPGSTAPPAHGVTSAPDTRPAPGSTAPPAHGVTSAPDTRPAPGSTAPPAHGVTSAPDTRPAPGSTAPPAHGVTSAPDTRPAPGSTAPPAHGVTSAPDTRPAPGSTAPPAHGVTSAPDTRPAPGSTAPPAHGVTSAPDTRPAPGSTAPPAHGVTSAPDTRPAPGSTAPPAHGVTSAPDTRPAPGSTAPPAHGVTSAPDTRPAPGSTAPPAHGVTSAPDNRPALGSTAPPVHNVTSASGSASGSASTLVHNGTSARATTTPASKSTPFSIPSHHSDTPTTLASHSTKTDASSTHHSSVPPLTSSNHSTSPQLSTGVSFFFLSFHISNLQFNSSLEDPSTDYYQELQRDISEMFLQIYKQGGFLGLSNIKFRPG
Chain of MUC1 (polymorphic epithelial mucin) on human tumor cells (P15941 1098-1255, chain 2 of 2): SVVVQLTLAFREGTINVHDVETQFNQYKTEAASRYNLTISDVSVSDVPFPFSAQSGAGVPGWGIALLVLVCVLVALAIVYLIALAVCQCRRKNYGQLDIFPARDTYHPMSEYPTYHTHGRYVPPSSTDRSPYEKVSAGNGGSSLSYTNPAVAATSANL

B1: HMFG-1 (antibody, V domains shown)
VH: QVQLVQSGAEVKKPGASVKVSCKASGYTFSAYWIEWVRQAPGKGLEWVGEILPGSNNSRYNEKFKGRVTVTRDTSTNTAYMELSSLRSEDTAVYYCARSYDFAWFAYWGQGTLVTVSS
VL: DIQMTQSPSSLSASVGDRVTITCKSSQSLLYSSNQKIYLAWYQQKPGKAPKLLIYWASTRESGVPSRFSGSGSGTDFTFTISSLQPEDIATYYCQQYYRYPRTFGQGTKVEIKR
Binder B1 has a Ka of 2.7e+08 M⁻¹.
